Source: PMC11996680, “KIF1C activates and extends dynein movement through the FHF cargo adapter” (Nature Structural & Molecular Biology, 2025)

B2: GST-KIF1C stalk 674-922 (domain or fragment, human, UniProt O43896 674-922, looked up)
chain: SDSGDDSDKRSCEESWRLISSLREQLPPTTVQTIVKRCGLPSSGKRRAPRRVYQIPQRRRLQGKDPRWATMADLKMQAVKEICYEVALADFRHGRAEIEALAALKMRELCRTYGKPDGPGDAWRAVARDVWDTVGEEEGGGAGSGGGSEEGARGAEVEDLRAHIDKLTGILQEVKLQNSSKDRELQALRDRMLRMERVIPLAQDHEDENEEGGEVPWAPPEGSEAAEEAAPSDRMPSARPPSPPLSSWE
notes: KIF1C, human, residues 674-922; Based on the original GST–KIF1C stalk plasmid; also called KIF1CS^2; KIF1CS^674–922; source: E. coli SoluBL21, purified (Ni-NTA, SEC); not shown: GST, N-terminal, kept

Key:
[1] = biological target: T1, KIF1C–GFP (full-length KIF1C fused to a C-terminal eGFP) (human, UniProt O43896 1-1103); assay: single-molecule TIRF microscopy, co-movement on microtubules; 200 nM TMR–dynein, 200 nM dynactin, 1,600 nM labeled adapter and 180 nM KIF1C-GFP mixed at ~75 mM KCl, on ice 45–60 min, diluted 1:20 or 1:40; biotin-microtubules held on the coverslip; 25 °C; conditions: both partners purified
T1 construct: kinesin-3 KIF1C, human, full length (residues up to 1103 are named); also called KFL; KFL–GFP; not shown: eGFP, C-terminal, kept
T1 sequence (looked up): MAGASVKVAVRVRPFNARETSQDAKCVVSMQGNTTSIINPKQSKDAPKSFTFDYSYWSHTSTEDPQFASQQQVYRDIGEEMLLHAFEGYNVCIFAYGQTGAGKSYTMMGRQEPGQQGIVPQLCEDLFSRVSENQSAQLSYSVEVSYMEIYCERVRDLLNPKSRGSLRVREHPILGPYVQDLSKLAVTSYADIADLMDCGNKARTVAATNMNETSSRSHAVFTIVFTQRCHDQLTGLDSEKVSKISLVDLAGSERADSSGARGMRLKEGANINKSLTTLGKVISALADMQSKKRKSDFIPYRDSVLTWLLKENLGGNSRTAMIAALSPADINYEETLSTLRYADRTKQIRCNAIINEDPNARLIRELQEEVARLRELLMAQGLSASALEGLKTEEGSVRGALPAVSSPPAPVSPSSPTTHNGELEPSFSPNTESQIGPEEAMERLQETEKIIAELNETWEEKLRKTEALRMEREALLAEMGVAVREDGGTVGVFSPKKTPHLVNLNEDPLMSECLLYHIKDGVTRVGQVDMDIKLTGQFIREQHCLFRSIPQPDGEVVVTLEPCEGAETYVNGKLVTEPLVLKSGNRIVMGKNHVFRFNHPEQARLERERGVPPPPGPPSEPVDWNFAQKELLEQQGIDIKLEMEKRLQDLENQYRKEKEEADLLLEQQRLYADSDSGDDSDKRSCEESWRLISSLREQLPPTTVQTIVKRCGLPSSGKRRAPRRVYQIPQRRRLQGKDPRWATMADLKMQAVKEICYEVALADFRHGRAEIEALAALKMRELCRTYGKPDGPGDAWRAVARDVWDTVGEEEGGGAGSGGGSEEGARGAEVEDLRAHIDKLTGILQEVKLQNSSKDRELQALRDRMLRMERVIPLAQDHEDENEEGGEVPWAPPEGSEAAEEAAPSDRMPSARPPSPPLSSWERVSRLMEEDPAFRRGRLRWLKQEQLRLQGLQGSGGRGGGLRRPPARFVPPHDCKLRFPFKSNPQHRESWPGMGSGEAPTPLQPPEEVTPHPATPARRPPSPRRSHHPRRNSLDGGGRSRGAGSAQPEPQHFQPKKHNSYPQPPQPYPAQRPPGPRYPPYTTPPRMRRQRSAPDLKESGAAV

[2] = biological target: T2, C-terminal HOOK3 (residues 451–718) (human, UniProt Q86VS8 451-718); assay: cryo-EM structure; FH^451–718F with GST-KIF1C stalk 674–922; 4.8 Å, low resolution at the KIF1C stalk density; no atomic model; conditions: both partners purified
T2 construct: also called H^C; source: Sf9, co-expressed with FTS and FHIP1B, purified (Strep-Tactin, PreScission, SEC); not shown: Strep II, N-terminal, cleaved
T2 sequence (looked up): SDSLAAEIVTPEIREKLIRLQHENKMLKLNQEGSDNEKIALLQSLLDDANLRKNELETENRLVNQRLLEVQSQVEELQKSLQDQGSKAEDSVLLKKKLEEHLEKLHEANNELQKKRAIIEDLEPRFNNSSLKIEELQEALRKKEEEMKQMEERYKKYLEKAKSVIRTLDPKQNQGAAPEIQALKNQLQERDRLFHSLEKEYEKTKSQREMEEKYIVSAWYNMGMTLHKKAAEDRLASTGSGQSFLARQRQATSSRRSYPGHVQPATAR

[3] = biological target: T3, full-length HOOK3 (of FHF co-expression) (human, UniProt Q86VS8 1-718); assay: cross-linking; cross-linking mass spectrometry; 10 mM EDC or 5 mM DSSO, room temperature, 60 min; full-length FHF or FH^571-718F with KIF1C stalk 674-922; conditions: both partners purified
T3 construct: HOOK3, human, full length; gene codon optimized for Sf9; Captured on Strep-Tactin by the tag, then released with PreScission protease before gel filtration; source: Sf9, co-expressed with FTS and FHIP1B or FHIP2A, purified (Strep-Tactin, PreScission, SEC); not shown: Strep II, N-terminal, cleaved
T3 sequence (looked up): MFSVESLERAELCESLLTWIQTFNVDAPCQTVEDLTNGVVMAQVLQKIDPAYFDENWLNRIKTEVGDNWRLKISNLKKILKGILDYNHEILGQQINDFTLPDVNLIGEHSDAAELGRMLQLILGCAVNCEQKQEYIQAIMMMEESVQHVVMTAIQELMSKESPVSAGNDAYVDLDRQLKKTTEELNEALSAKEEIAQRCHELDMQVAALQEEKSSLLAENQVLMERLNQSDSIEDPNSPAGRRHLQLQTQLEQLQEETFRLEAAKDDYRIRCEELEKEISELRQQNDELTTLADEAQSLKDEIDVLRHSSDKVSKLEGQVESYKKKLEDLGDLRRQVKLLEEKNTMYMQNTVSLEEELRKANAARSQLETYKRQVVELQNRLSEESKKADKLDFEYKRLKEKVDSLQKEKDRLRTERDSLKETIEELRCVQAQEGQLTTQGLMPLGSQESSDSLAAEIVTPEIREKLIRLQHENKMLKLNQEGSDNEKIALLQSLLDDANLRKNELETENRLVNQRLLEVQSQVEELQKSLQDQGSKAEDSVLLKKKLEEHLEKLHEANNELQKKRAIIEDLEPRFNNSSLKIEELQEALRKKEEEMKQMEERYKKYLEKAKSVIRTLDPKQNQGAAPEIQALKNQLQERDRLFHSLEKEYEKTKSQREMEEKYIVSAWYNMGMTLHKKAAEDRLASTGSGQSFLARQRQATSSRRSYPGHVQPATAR

[4] = biological target: T4, full-length FTS–HOOK3–FHIP1B complex (human, UniProt Q86VS8 1-718; Q9H8T0 1-292; Q8N612 1-972); assay: mass photometry; full-length FHF with KIF1C stalk, 100 nM in GF150, Refeyn TwoMP; conditions: both partners purified
T4 construct: HOOK3, human, full length; FTS, human, full length; FHIP1B, human, full length; SEC-MALS gave ~304 kDa for the full-length complex; also called FHF; full-length FHF; source: Sf9, co-expressed, purified (Strep-Tactin, PreScission, SEC); not shown: Strep II, N-terminal, cleaved; copies: 2 + +
T4 sequence (Q9H8T0 whole entry, chain 2 of 2): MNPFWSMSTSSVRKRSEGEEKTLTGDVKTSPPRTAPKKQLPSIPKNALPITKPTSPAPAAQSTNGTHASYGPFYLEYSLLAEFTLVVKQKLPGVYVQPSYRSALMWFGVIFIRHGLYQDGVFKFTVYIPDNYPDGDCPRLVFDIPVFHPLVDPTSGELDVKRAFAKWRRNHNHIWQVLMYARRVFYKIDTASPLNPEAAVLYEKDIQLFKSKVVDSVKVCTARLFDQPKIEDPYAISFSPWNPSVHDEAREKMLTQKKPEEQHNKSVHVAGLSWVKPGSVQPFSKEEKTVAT
T4 sequence (Q8N612 whole entry, chain 3 of 2): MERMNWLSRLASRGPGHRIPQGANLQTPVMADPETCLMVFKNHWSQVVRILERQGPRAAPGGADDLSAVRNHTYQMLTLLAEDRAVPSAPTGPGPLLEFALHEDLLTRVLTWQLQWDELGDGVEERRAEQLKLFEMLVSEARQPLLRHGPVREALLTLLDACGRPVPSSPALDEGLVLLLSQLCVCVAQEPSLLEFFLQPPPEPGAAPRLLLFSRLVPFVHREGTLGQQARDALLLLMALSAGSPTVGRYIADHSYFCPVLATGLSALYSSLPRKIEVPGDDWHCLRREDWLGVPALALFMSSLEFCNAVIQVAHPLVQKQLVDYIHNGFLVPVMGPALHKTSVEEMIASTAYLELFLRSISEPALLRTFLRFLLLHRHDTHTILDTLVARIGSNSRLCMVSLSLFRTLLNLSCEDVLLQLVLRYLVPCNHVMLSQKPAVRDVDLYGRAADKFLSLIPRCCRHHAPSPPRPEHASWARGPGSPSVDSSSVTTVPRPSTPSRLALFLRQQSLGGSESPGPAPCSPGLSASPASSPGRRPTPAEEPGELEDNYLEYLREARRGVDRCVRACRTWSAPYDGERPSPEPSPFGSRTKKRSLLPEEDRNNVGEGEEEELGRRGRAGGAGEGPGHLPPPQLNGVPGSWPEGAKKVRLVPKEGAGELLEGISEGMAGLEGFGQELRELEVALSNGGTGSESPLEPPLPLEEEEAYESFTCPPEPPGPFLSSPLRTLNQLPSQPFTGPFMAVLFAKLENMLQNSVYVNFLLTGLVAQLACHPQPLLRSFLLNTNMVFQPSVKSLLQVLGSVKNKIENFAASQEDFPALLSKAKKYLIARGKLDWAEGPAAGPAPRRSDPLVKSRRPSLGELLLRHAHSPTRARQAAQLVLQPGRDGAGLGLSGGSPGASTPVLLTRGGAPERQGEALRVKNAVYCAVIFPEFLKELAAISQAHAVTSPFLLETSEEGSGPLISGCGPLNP

[5] = biological target: the molecule itself; assay: cryo-EM structure; FTS, FHIP1B and HOOK3 571–718, co-expressed in Sf9 and purified as one complex; 3.2 Å; 0.9 mg/ml with 0.1% CHAPSO or 0.005% Igepal
GST-KIF1C stalk 674-922 = biological target: B2; assay: cross-linking; cross-linking mass spectrometry; 10 mM EDC or 5 mM DSSO, room temperature, 60 min; full-length FHF or FH^571-718F with KIF1C stalk 674-922; conditions: both partners purified

B1: HOOK3-SNAPf labeled with Alexa-647 (natural protein, human, UniProt Q86VS8 1-718, looked up)
chain: MFSVESLERAELCESLLTWIQTFNVDAPCQTVEDLTNGVVMAQVLQKIDPAYFDENWLNRIKTEVGDNWRLKISNLKKILKGILDYNHEILGQQINDFTLPDVNLIGEHSDAAELGRMLQLILGCAVNCEQKQEYIQAIMMMEESVQHVVMTAIQELMSKESPVSAGNDAYVDLDRQLKKTTEELNEALSAKEEIAQRCHELDMQVAALQEEKSSLLAENQVLMERLNQSDSIEDPNSPAGRRHLQLQTQLEQLQEETFRLEAAKDDYRIRCEELEKEISELRQQNDELTTLADEAQSLKDEIDVLRHSSDKVSKLEGQVESYKKKLEDLGDLRRQVKLLEEKNTMYMQNTVSLEEELRKANAARSQLETYKRQVVELQNRLSEESKKADKLDFEYKRLKEKVDSLQKEKDRLRTERDSLKETIEELRCVQAQEGQLTTQGLMPLGSQESSDSLAAEIVTPEIREKLIRLQHENKMLKLNQEGSDNEKIALLQSLLDDANLRKNELETENRLVNQRLLEVQSQVEELQKSLQDQGSKAEDSVLLKKKLEEHLEKLHEANNELQKKRAIIEDLEPRFNNSSLKIEELQEALRKKEEEMKQMEERYKKYLEKAKSVIRTLDPKQNQGAAPEIQALKNQLQERDRLFHSLEKEYEKTKSQREMEEKYIVSAWYNMGMTLHKKAAEDRLASTGSGQSFLARQRQATSSRRSYPGHVQPATAR
modifications: Alexa-647 on the SNAP tag
notes: HOOK3, human, amplified from a human cDNA library from the start codon to the last codon; also called HOOK3-Alexa 647; source: Sf9, purified (Ni-NTA, IgG Sepharose, cut off the beads with TEV protease); not shown: 8xHis, N-terminal, cleaved; ZZ, N-terminal, cleaved; SNAPf, C-terminal, kept
**Q.** Does B1 bind [1]?
**A.** Result: binds

**Q.** What does the source list for B2?
**A.** binding result [2]: binds; binding result [3]: binds

B3: GST–KIF1C stalk (residues 642–922) (domain or fragment, human, UniProt O43896 642-922, looked up)
chain: EMEKRLQDLENQYRKEKEEADLLLEQQRLYADSDSGDDSDKRSCEESWRLISSLREQLPPTTVQTIVKRCGLPSSGKRRAPRRVYQIPQRRRLQGKDPRWATMADLKMQAVKEICYEVALADFRHGRAEIEALAALKMRELCRTYGKPDGPGDAWRAVARDVWDTVGEEEGGGAGSGGGSEEGARGAEVEDLRAHIDKLTGILQEVKLQNSSKDRELQALRDRMLRMERVIPLAQDHEDENEEGGEVPWAPPEGSEAAEEAAPSDRMPSARPPSPPLSSWE
notes: KIF1C, human, amino acids 642-922 (CC2, stalk globular domain, CC3); A tandem TEV site lies between GST and KIF1C; also called KS; GST-tagged KIF1C stalk; source: E. coli SoluBL21, purified (Ni-NTA, SEC); not shown: GST, N-terminal, kept
**Q.** With B3 as the binder, how does the “stoichiometry N” value [4] read?
**A.** Its value is 1 dimeric KIF1C stalk per FHF.

B4: C-terminal HOOK3 fragment (residues 571–718) (domain or fragment, human, UniProt Q86VS8 571-718, looked up)
chain: DLEPRFNNSSLKIEELQEALRKKEEEMKQMEERYKKYLEKAKSVIRTLDPKQNQGAAPEIQALKNQLQERDRLFHSLEKEYEKTKSQREMEEKYIVSAWYNMGMTLHKKAAEDRLASTGSGQSFLARQRQATSSRRSYPGHVQPATAR
notes: gene codon optimized for Sf9; Captured on Strep-Tactin by the tag, then released with PreScission protease before gel filtration; Two copies form the coiled coil in the structure; source: Sf9, co-expressed with FTS and FHIP1B or FHIP2A, purified (Strep-Tactin, PreScission, SEC); not shown: Strep II, N-terminal, cleaved
**Q.** Which results are given for B4?
**A.** binding result [5]: binds; binding result (GST-KIF1C stalk 674-922): binds
